Results taken from the RNAGym collection of RNA variant scans (doi:10.1073/pnas.2313332121).

B1: TPR t1 (parent)
chain: GACCAAUCUGCCCUCAGAGCUCGAGAACAUCUUCGGAUGCAGAGGAGGCAGGCUUCGGUGGCGCGAUAGCGCCAACGUCCUCAACCUCCAAUGCAUCCCACCACAUGAUGAUGCCUGAAGAGCCUUGGUUUUUUG

Variants of: B1
Assay: polymerase ribozyme fitness, log enrichment relative to wild type (log ratio); higher = more active; in vitro selection for triplet polymerase activity
In short: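 Genotype fitness is the logarithm of its enrichment divided by wild-type enrichment, using inverse-variance-weighted averages of replicates. That logarithm is base 2. Enrichment was measured by Illumina sequencing of input and output libraries from one triplicate in vitro selection round, with frozen incubation at −7 °C, on PCR-built, transcribed mutant libraries of each subunit of a heterodimeric triplet polymerase ribozyme, retaining genotypes with ≥10 input reads and ≥1 read per output.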

Variant | polymerase ribozyme fitness (log ratio)
C22G A29C G61U G63C C97A C124A | -6.38
C22U A26G G52C A105C C124U | -4.45
C20U A50G | -1.33
C20U U33G U59A G107U G110C | -6.84
C20G G71A C72A C80U G110C G117C | -6.92
C22A G45U C62U C73U | -5.77
C22G A26C G42C A84U | -6.04
U21C G48C A90U G117C G127C | -5.55
C22G G44U G48U G63U A91C A111U | -6.95
C20G U30G C114G G117U C124G | -7.61
U21A A43U G61A C73U A90G | -3.13
C20U C124U | -0.364
C20U G60A G107C G120C | -5.52
U21C | -0.0619
U21A | -0.29
U21G | -0.965
C20U C28G G45A G52U G69U C114U | -5.61
C22U C53A C72U C98U C123U | -4.73
C20U A41C U116C | -4.23
C20U A26G G71U U109A | -5.57
C20G C73U A83C | -4.27
G23A G39U C53A G69U G71A C115G G117A | -4.86
C20G U78C | -3.43
U21A G42A A46U G60A G120A | -2.58

Variant | polymerase ribozyme fitness (log ratio)
U21C A37U | 0.0886
U21A U92C U116C A119G | 0.265
C20G C40A C70U U92A G93A G113C | -6.62
C22U A43G G61U C115A | -5.75
C22U A41C G60A C99U G110A U129G | -6.8
C20U A83G C102A | -5.64
U21A C53G U54G U87A U133A | -3.43
C22G G120A | -2.9
U21C C89A | -1.81
C22G C34A G52C | -4.14
C20U A43G G63A | -4.59
U21A A50U C73U C76G C89A | -4.66
C20U C40A G44C C49G G71A C115A A119G | -4.83
C20U C34U | -5.22
C22A A95U | -4.83
C20U G58A C73A G93C G117U | -5.31
C20G G135C | -3.68
C22G C73A | -3.17
C20U C72U C98A | -5.82
C20U G57A U78C | -3.25
G23A G48U | -5.02
C20G A46U C114U | -3.16
U21C A111C | 0.739
U21G C123G | 0.364

Variant | polymerase ribozyme fitness (log ratio)
C20U G77A | -1.35
C22G G23A G61U C89U C114U | -3.99
U21A C49G G61U U130C | -0.83
C20U C40A G63U C123U | -3.75
C22A C82A C89A A111G | -6.04
C20U U32C G71A U112C | -1.25
C20U G57A G58C | -2.72
C20G G48A G52A | -6
U21A A37C A46U G77A C89U U131C | -5.66
C20U C53A G71A A91G | -5.09
U21A A43U C73U A90G | -2.19
C22U C82U | -4.56
U21G A27U G60U C80A C123G | -6.74
C20G C56U C123A | -5.13
C22A G57C C86U | -4.83
C22U G120C | -2.63
U21A C62U | -0.421
U21A G44A | -1.07
U21A C49A C56A A121U | 0.0625
C22G C64U | -2.83
C22G U106C C123G U133G | -2.48
C22A G60C A90G C123U | -5.34
C22U G117A | -4.58
G23A G48A C86G | -6.91

Variant | polymerase ribozyme fitness (log ratio)
C22A C72A C73A | -5.32
U21G G42U U112A | 0.673
C22A A74U C123A U125G | -5.38
U21G C22U U92G C104A U109A | -5.96
C22U G51A G61C U109A G117C | -7.16
C20U C114U | -1.66
U21A C49G U92C C104U | -2.2
C20G G120U | -4.25
U21A U59G U81G C82G C115U | -4.27
C22G G110U U125G | -4.31
C22A C53U G113U | -4.93
C22G G47A G120U G127U | -3.88
U21C G44A A119G U125G | -1.38
C22G G42C C115U | -3.85
C22G G71U C89A | -5.9
C22G A26C G39U A50G C72U U112C | -4.01
U21G C72A | -0.561
C22G U96C | -3.36
G23A C40A | -4.86
U21C G71U C86G G117A | -5.6
C22G C34G C102U C123A | -4.03
C20U G57A | -1.75
C20U A41C C72A C101G | -3.66
U21G C62G C101U | -5

Variant | polymerase ribozyme fitness (log ratio)
C22G C70U | -3.87
C20G G36A A121C | -3.32
U21C G45C C56U G69A U109A A111U C124G | -8.04
C20G C123G U132G | -3.39
C22U G60C C104A | -5.43
C22G C73G U133G | -4.48
C22U U87A | -3.71
C20G G117U | -5.16
U21G C73G A83G | -3.58
C22A G48U C56U | -4.88
U21A A29G | -1.38
U21A C86G | -0.987
U21A C56G U78A C85A U109G | -4.63
U21C G61A C114U U125A | -1.45
C20U U38G C62G G120C | -4.8
U21A C89U | -0.222
C22G C82U | -3.57
C22G G77C C88G C123U | -3.61
C20U G42A C124G U126C G135U | -1.98
U21A A46G G128C G135C | -0.459
C20U G39A C56A G69U C94G | -1.55
C22A G110A | -4.72
U21G C94U | -1.8
U21A A27C A46G C76G | -2.54

Variant | polymerase ribozyme fitness (log ratio)
C20U U112G | -1.11
U21C C64A C99G U112G | -8.45
U21G C22A A27U | -4.41
C22G A41C G44C G69U C79G A90C | -5.69
C22A A91G | -4.94
U21C G60U G110A | -3.6
C20G C56G A84U | -4.43
C20U G42C | -2.14
C22G U92G | -5.35
U21G G45U U92G | -5.73
C20G A91G C101A G117C | -4.92
C20U C22A | -3.94
U21G A50U G69A A108G G110A U112G | -6.33
U21C C56A C70U C82A | -2.18
C20U A43C C82U C98U | -4.43
C22A G45A G63C C88U | -5.31
C20G C62U C98U A111U G120C | -4.17
U21A G63A | -1.05
C22U C62A U106G A108C A121G G122U | -7.34
C22G U78C | -3.01
C22G U78G | -4.47
C20U G52C C72U | -2.41
C22U G61A | -3.53
C22U A37C | -4.23

Variant | polymerase ribozyme fitness (log ratio)
U21A C62U A119U | -0.733
C22U G60A U96G | -4.57
C22G C72U C114A | -3.16
C22U C82A U87G | -5.14
U21A G61A U96C | -0.247
C22U A66U G120A | -4.81
C20U A105U | -3.87
U21A G60A A74U A100U U125G U132A | -0.987
C20G C56A | -4.28
U21A G63A C88A A91C | -5.41
C22U C40G G69U C79U C82G | -3.66
U21G U38C | -2.11
C22A G57C C102A | -5.72
C22G C72U U96C C114G C123U G127U | -7.69
C20U G63U | -2.43
C20G G61U C79A G117C C123A | -6.44
C20G C115A | -3.94
C20G C115G | -4.85
C20U C70U A95G | -1.86
C20U G42A A91C | -4.6
C22G G61A G93A | -3.75
C22U A46C C70U | -6.66
U21C U38A C73A C123A | -1.55
